Values quoted from earlier work in publication PMC3196573.

Tests used:
ALK3 (Homo sapiens) = ALK3 (Homo sapiens) (UniProt P36894)
ALK6 (Homo sapiens) = ALK6 (Homo sapiens) (UniProt O00238)
Sequence of UniProt O00238 (O00238 14-126): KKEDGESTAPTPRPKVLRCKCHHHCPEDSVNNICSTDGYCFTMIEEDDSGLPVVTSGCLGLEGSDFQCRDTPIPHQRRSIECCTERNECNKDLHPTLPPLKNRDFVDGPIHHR

Sequence of UniProt P36894 (P36894 24-152): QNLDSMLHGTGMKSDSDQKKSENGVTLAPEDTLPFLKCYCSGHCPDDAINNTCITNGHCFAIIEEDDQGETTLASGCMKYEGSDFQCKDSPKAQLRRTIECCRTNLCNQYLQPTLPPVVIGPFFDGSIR

Kd (ALK3 (Homo sapiens)): 0.9 nM
Kd (ALK6 (Homo sapiens)): 3.6 nM
Substance: BMP2 (from UniProt P12643)
